# Measured values from US20140378657A1.
# Columns and labels:
# [1] = target: biotinylated maltose binding protein (MBP-AviTag fusion, Avidity, LLC) [MBP: P0AEX9]; experiment: SPR, biotinylated MBP row of Table 2; footnote: value determined by the surface plasmon resonance method described in Qureshi and Wong (2002)
# [2] = target: biotinylated maltose binding protein (MBP-AviTag fusion, Avidity, LLC) [MBP: P0AEX9]; experiment: affinity column, elution with 5 mM d-biotin
# [3] = target: biotinylated maltose binding protein (MBP-AviTag fusion, Avidity, LLC) [MBP: P0AEX9]; experiment: SPR (BIAcoreX), biotinylated MBP-AviTag as immobilised ligand
# Chain of wild-type streptavidin (P22629 25-183 limits assumed): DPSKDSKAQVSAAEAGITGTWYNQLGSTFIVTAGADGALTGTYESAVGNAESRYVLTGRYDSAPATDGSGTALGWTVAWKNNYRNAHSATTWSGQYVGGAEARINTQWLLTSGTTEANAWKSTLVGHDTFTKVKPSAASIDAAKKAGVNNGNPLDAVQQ
Substance,kon [1] [M⁻¹ s⁻¹],recovery from affinity column [2] [%],Kd [3] [nM],koff [3] [s⁻¹],kon [3] [M⁻¹ s⁻¹]
wild-type streptavidin (from UniProt P22629 25-183),5.13e+06,–,–,–,–
"streptavidin mutein SBPM18 (S27A, G48T) (designed binder)",–,90,11.5,0.00265,230000
